The text below walks through data of patent publication US20150285818A1, “Switchable Reporter Enzymes for Homogenous Antibody Detection” (TECHNISCHE UNIVERSITEIT EINDHOVEN, priority 2012, published 2015).

Where a chain is given by its changes, count along the chain named. In names and notes the source's numbering stands.

The subject of series [1] is anti-HIV1-p17 antibody. The series can be described thus: Reporter enzyme activity assay with fluorescent substrate CCF2-FA in buffer and serum.
Another series deals with IgG mix. The series can be described thus: Specificity of reporter enzyme activity towards nonspecific IgG mix. The following applies: up to highest IgG concentration tested (2 μM).
The subject of series [2] is anti-HIV1-p17 antibody. The series can be described thus: Reporter enzyme activity assay with nitrocefin and anti-HIV1-p17 antibody titration. The following applies: 50 μM nitrocefin; for Kd: read-out: dissociation constant (Kd) of reporter enzyme for target antibody, fit of nitrocefin hydrolysis rate vs anti-HIV1-p17 concentration, 1:1 binding model, pH 7.0; for increase in enzymatic activity upon addition of 200 nM anti-HIV1-p17: 0.3 nM sensor, 200 nM antibody.

B1: Abs3-1: Abs-3 variant with E104D in β-lactamase and E31A in BLIP; SEQ ID NO: 22 (protein)
chain: MSIQHFRVALIPFFAAFCLPVFAHHHHHHLVPRGSHPETLVKVKDAEDQLGARVGYIELDLNSGKILESFRPEERFPMMSTFKVLLCGAVLSRIDAGQEQLGRRIHYSQNDLVDYSPVTEKHLTDGMTVRELCSAAITMSDNTAANLLLTTIGGPKELTAFLHNMGDHVTRLDRWEPELNEAIPNDERDTTMPVAMATTLRKLLTGELLTLASRQQLIDWMEADKVAGPLLRSALPAGWFIADKSGAGERGSRGIIAALGPDGKPSRIVVIYTTGSQATMDERNRQIAEIGASLIKHWTSGGELDRWEKIRLRPGGSGGSGGSGGSGGSGGSGAEAAAKEAAAKEAAAKEAAAKEAAAKEAAAKAGSGGSGGSGGSGGSGGSGAEAAAKEAAAKEAAAKEAAAKEAAAKEAAAKAGSGGSGGSGGSGGSGGSGGELDRWEKIRLRPGGSHGAGVMTGAKFTQIQFGMTRQQVLDIAGAENCATGGSFGDSIHCRGHAAGDYYAYATFGFTSAAADAKVDSKSQEKLLAPSAPTLTLAKFNQVTVGMTRAQVLATVGQGSCTTWSEYYPAYPSTAGVTLSLSCFDVDGYSSTGFYRGSAHLWFTDGVLQGKRQWDLVGEFGGWSHPQFEK
In general, Kd refers to the equilibrium constant for the complex coming apart. B1: the “increase in enzyme activity upon addition of 50 nM target antibody in serum” value in the series on anti-HIV1-p17 antibody [1] (5 nM sensor, 10% FBS, 10 μM CCF2-FA) came out at 10 fold. Also, the “dynamic range with CCF2-FA as substrate” value in the series on anti-HIV1-p17 antibody [1] (1 μM CCF2-FA in buffer, 0.1 nM sensor) was 9 fold. For the same molecule, in the series with anti-HIV1-p17 antibody [1] (buffer), the “enzymatic activity in absence of target antibody, 1 μM CCF2-FA compared to 50 μM nitrocefin” value is recorded as “significantly lower”. In addition, the “increase in enzyme activity with random mix of IgG proteins” value with IgG mix is “No significant increase”. Besides, in the series on anti-HIV1-p17 antibody [2], the “enzymatic (background) activity in the absence of antibody” value (from here on “enzymatic (background) activity”) is given as “low background activity” and the Kd is 0.17 ± 0.03 nM.

B2: Abs3-2: Abs-3 variant with E104D in β-lactamase and F142A in BLIP; SEQ ID NO: 37 (protein)
chain: B1 chain with A482E, F593A
Take B2: in the series on IgG mix, the “increase in enzyme activity with random mix of IgG proteins” value was “No significant increase”. In the series with anti-HIV1-p17 antibody [2], the “enzymatic (background) activity” value was “low background activity” and the Kd was found to be 0.19 ± 0.02 nM.

B3: Abs2-2: Abs3-2 with the large epitope changed for the shorter WEKIRLR epitope; SEQ ID NO: 20 (protein)
chain: MSIQHFRVALIPFFAAFCLPVFAHHHHHHLVPRGSHPETLVKVKDAEDQLGARVGYIELDLNSGKILESFRPEERFPMMSTFKVLLCGAVLSRIDAGQEQLGRRIHYSQNDLVDYSPVTEKHLTDGMTVRELCSAAITMSDNTAANLLLTTIGGPKELTAFLHNMGDHVTRLDRWEPELNEAIPNDERDTTMPVAMATTLRKLLTGELLTLASRQQLIDWMEADKVAGPLLRSALPAGWFIADKSGAGERGSRGIIAALGPDGKPSRIVVIYTTGSQATMDERNRQIAEIGASLIKHWTSGGWEKIRLRGGSGGSGGSGGSGGSGGSGAEAAAKEAAAKEAAAKEAAAKEAAAKEAAAKAGSGGSGGSGGPQGILGQGSGGSGGSGGSGAEAAAKEAAAKEAAAKEAAAKEAAAKEAAAKAGSGGSGGSGGSGGSGGSGGWEKIRLRGGSGGSHGAGVMTGAKFTQIQFGMTRQQVLDIAGAENCETGGSFGDSIHCRGHAAGDYYAYATFGFTSAAADAKVDSKSQEKLLAPSAPTLTLAKFNQVTVGMTRAQVLATVGQGSCTTWSEYYPAYPSTAGVTLSLSCFDVDGYSSTGAYRGSAHLWFTDGVLQGKRQWDLVGEFGGWSHPQFEK
B3: in the series with anti-HIV1-p17 antibody [2] (saturating anti-HIV1-p17), the “increase in enzyme activity upon addition of target antibody” value is given as 1.8 fold. For the same molecule, the Kd at anti-HIV1-p17 antibody [2] worked out at 108 nM.

B4: Abs-2: TEM1 β-lactamase fused via linker with WEKIRLR epitopes to BLIP protein as inhibitor domain; SEQ ID NO: 13 (protein)
chain: B3 chain with D114E, A597F
As for B4, in the series on anti-HIV1-p17 antibody [2], the “increase in enzymatic activity upon addition of 200 nM anti-HIV1-p17” value was “no increase in activity” and the “enzymatic (background) activity” value was “strongly inhibited”.

B5: Abs-1: TEM1 β-lactamase fused via linker with WEKIRLR epitopes to weak-binding RRGHYY peptide inhibitor; SEQ ID NO: 12 (protein)
chain: MSIQHFRVALIPFFAAFCLPVFAHHHHHHLVPRGSHPETLVKVKDAEDQLGARVGYIELDLNSGKILESFRPEERFPMMSTFKVLLCGAVLSRIDAGQEQLGRRIHYSQNDLVEYSPVTEKHLTDGMTVRELCSAAITMSDNTAANLLLTTIGGPKELTAFLHNMGDHVTRLDRWEPELNEAIPNDERDTTMPVAMATTLRKLLTGELLTLASRQQLIDWMEADKVAGPLLRSALPAGWFIADKSGAGERGSRGIIAALGPDGKPSRIVVIYTTGSQATMDERNRQIAEIGASLIKHWTSGGWEKIRLRGGSGGSGGSGGSGGSGGSGAEAAAKEAAAKEAAAKEAAAKEAAAKEAAAKAGSGGSGGSGGPQGILGQGSGGSGGSGGSGAEAAAKEAAAKEAAAKEAAAKEAAAKEAAAKAGSGGSGGSGGSGGSGGSGGWEKIRLRGGSGGSHGRRGHYYGEFGGWSHPQFEK
Regarding B5, the “increase in enzymatic activity upon addition of 200 nM anti-HIV1-p17” value in the series with anti-HIV1-p17 antibody [2] is listed as “no increase in enzymatic activity”.
